Experimental findings from article doi:10.1101/2024.03.08.584095v1 are described below.

The chains are these.
B1: TaPOR1 (Triticum aestivum) (protein)
chain: GVVVITGASSGLGLAAAKALAETGKWHVVMACRDFLKASKAAKAAGMADGSYTVMHLDLASLDSVRQFVDAFRRAEMPLDVLVCNAAIYRPTARTPTFTADGHEMSVGVNHLGHFLLARLLMEDLQKSDYPSRRMVIVGSITGNSNTLAGNVPPKASLGDLRGLAGGLSGASGSAMIDGDESFDGAKAYKDSKVCNMLTMQEFHRRYHEETGITFSSLYPGCIATTGLFREHIPLFRTLFPPFQKFVTKGFVSEAESGKRLAQVVAEPSLTKSGVYWSWNKDSASFENQLSQEASDPEKARKVWELSEKLVGLA
B2: AtPORA (Arabidopsis thaliana) (protein)
chain: QAIATSTPSVTKSSLDRKKTLRKGNVVVTGASSGLGLATAKALAETGKWHVIMACRDFLKAERAAQSAGMPKDSYTVMHLDLASLDSVRQFVDNFRRAEMPLDVLVCNAAVYQPTANQPTFTAEGFELSVGINHLGHFLLSRLLIDDLKNSDYPSKRLIIVGSITGNTNTLAGNVPPKANLGDLRGLAGGLNGLNSSAMIDGGDFVGAKAYKDSKVCNMLTMQEFHRRFHEDTGITFASLYPGCIATTGLFREHIPLFRTLFPPFQKYITKGYVSESEAGKRLAQVVADPSLTKSGVYWSWNKTSASFENQLSQEASDVEKARRVWEVSEKLVGLA
B3: AtPORB (Arabidopsis thaliana) (protein)
chain: QTAATSSPTVTKSVDGKKTLRKGNVVVTGASSGLGLATAKALAETGKWNVIMACRDFLKAERAAKSVGMPKDSYTVMHLDLASLDSVRQFVDNFRRTETPLDVLVCNAAVYFPTAKEPTYSAEGFELSVATNHLGHFLLARLLLDDLKKSDYPSKRLIIVGSITGNTNTLAGNVPPKANLGDLRGLAGGLNGLNSSAMIDGGDFDGAKAYKDSKVCNMLTMQEFHRRFHEETGVTFASLYPGCIASTGLFREHIPLFRALFPPFQKYITKGYVSETESGKRLAQVVSDPSLTKSGVYWSWNNASASFENQLSEEASDVEKARKVWEISEKLVGLA
B4: AtPORC (Arabidopsis thaliana) (protein)
chain: QTVTATPPANEASPEQKKTERKGTAVITGASSGLGLATAKALADTGKWHVIMACRNFLKAEKAARSVGMSKEDYTVMHLDLASLESVKQFVENFRRTEQPLDVLVCNAAVYQPTAKEPSFTAEGFEISVGTNHLGHFLLSRLLLDDLKKSDYPSKRMIIVGSITGNTNTLAGNVPPKANLGDLRGLASGLNGQNSSMIDGGEFDGAKAYKDSKVCNMLTMQELHRRYHEETGVTFASLYPGCIATTGLFREHIPLFRLLFPPFQKYITKGYVSEEEAGKRLAQVVSDPSLGKSGVYWSWNNNSSSFENQLSKEASDAEKAKKLWEVSEKLVGLA
B5: SynPOR (Synechocystis sp. PCC 6803 substr. Kazusa) (protein)
chain: MEQPMKPTVIITGASSGVGLYGAKALIDKGWHVIMACRNLDKTQKVADELGFPKDSYTIIKLDLGYLDSVRRFVAQFRELGRPLKALVCNAAVYFPLLDEPLWSADDYELSVATNHLGHFLLCNLLLEDLKACPDADKRLIILGTVTANSKELGGKIPIPAPPDLGNFEGFEAGFKKPIAMINNKKFKSGKAYKDSKLCNMLTTRELHRRFHQETGIVFNSLYPGCVADTPLFRNHYSLFRTIFPWFQKNVTKGYVSQELAGERVAMVVADDKFKDSGVHWSWGNRQQAGREAFVQELSEQGSDAQKAQRMWDLSEKLVGLV
B6: AtPORB (Arabidopsis thaliana; S312E) (protein)
chain: QTAATSSPTVTKSVDGKKTLRKGNVVVTGASSGLGLATAKALAETGKWNVIMACRDFLKAERAAKSVGMPKDSYTVMHLDLASLDSVRQFVDNFRRTETPLDVLVCNAAVYFPTAKEPTYSAEGFELSVATNHLGHFLLARLLLDDLKKSDYPSKRLIIVGSITGNTNTLAGNVPPKANLGDLRGLAGGLNGLNSSAMIDGGDFDGAKAYKDSKVCNMLTMQEFHRRFHEETGVTFASLYPGCIAETGLFREHIPLFRALFPPFQKYITKGYVSETESGKRLAQVVSDPSLTKSGVYWSWNNASASFENQLSEEASDVEKARKVWEISEKLVGLA

Substrate in the first data set: NC(=O)C1=CN([C@@H]2O[C@H](COP(=O)(O)OP(=O)(O)OC[C@H]3O[C@@H](n4cnc5c(N)ncnc54)[C@H](OP(=O)(O)O)[C@@H]3O)[C@@H](O)[C@H]2O)C=CC1
As to the kind of experiment: purified protein, by the assay type.
Details: not given
For orientation: Km means the concentration of substrate that gives half-maximal velocity. For B1, the Km was 39.67 µM.
The same measure, in the same setting: under B2 stands 2.47 µM.
Still for that read-out and setting: under B3 stands 1.27 µM.
In the case of B4, the Km turned out to be 0.73 µM.
B5: the Km was found to be 12.85 µM.

Substrate in the next data set: NC(=O)C1=CN([C@@H]2O[C@H](COP(=O)(O)OP(=O)(O)OC[C@H]3O[C@@H](n4cnc5c(N)ncnc54)[C@H](OP(=O)(O)O)[C@@H]3O)[C@@H](O)[C@H]2O)C=CC1
Nature of the data set: purified protein. Particulars: pH 7.1.
In the case of B6, the Km is recorded as 14.4 ± 1.66 µM.
